{
  "source": "patent US20070110757A1",
  "data": [
    {"biological_target": "RSV F protein on respiratory syncytial virus (RSV-Long strain) (respiratory syncytial virus (Long strain)) (UniProt P12568)", "sequence (P12568 26-574)": "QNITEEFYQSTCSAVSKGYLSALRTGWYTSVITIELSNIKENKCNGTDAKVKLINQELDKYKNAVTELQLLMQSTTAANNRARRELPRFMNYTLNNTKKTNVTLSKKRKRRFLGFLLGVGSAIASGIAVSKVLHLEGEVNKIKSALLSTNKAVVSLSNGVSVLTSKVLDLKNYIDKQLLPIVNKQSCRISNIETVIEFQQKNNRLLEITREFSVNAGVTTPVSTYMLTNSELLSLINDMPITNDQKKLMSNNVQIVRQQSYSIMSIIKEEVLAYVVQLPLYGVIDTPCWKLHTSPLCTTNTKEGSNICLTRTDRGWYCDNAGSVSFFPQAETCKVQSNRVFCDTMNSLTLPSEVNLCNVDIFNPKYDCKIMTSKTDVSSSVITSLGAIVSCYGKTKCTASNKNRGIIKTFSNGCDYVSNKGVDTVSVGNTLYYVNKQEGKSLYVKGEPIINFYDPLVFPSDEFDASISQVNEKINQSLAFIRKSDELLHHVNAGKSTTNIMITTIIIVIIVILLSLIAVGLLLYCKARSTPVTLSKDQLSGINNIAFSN", "assay": "cell-based or functional assay", "units": {"Fold Difference (Control IC50)": "fold", "Fold Difference (Curve IC50)": "fold", "Mean IC50 (Control), RSV microneutralization": "µg/mL", "Mean IC50 (Curve), RSV microneutralization": "µg/mL"}, "values": [
      {"binder": "A17d4(1) monoclonal antibody (antibody, V domains shown) VH: QVTLRESGPALVKPTQTLTLTCTFSGFSLSTAGMSVGWIRQPPGKALEWLADIWWDGKKSYNPSLKDRLTISKDTSKNQVVLKVTNMDPADTATYYCARDMIFNFYFDVWGQGTTVTVSS VL: DIQMTQSPSTLSASVGDRVTITCLPSSRVGYMHWYQQKPGKAPKLLIYDTMYQSSGVPSRFSGSGSGTEFTLTISSLQPDDFATYYCFQGSGYPFTFGGGTKVEIK", "Fold Difference (Control IC50)": 15, "Fold Difference (Curve IC50)": 13, "Mean IC50 (Control), RSV microneutralization": 0.0354, "Mean IC50 (Curve), RSV microneutralization": 0.0342},
      {"binder": "P11d4 monoclonal antibody (antibody, V domains shown) VH: QVTLRESGPALVKPTQTLTLTCTFSGFSLSTPGMSVGWIRQPPGKALEWLADIWWDGKKHYNPSLKDRLTISKDTSKNQVVLKVTNMDPADTATYYCARDMIFNWYFDVWGQGTTVTVSS VL: DIQMTQSPSTLSASVGDRVTITCSPSSRVGYMHWYQQKPGKAPKLLIYDTMRLASGVPSRFSGSGSGTEFTLTISSLQPDDFATYYCFQGSGYPFTFGGGTKVEIK", "Fold Difference (Control IC50)": 19, "Fold Difference (Curve IC50)": 21, "Mean IC50 (Control), RSV microneutralization": 0.0289, "Mean IC50 (Curve), RSV microneutralization": 0.0217},
      {"binder": "P12f2 monoclonal antibody (antibody, V domains shown) VH: QVTLRESGPALVKPTQTLTLTCTFSGFSLSTPGMSVGWIRQPPGKALEWLADIWWDDKKHYNPSLKDRLTISKDTSKNQVVLKVTNMDPADTATYYCARDMIFNFYFDVWGQGTTVTVSS VL: DIQMTQSPSTLSASVGDRVTITCSLSSRVGYMHWYQQKPGKAPKLLIYDTFYLSSGVPSRFSGSGSGTEFTLTISSLQPDDFATYYCFQGSGYPFTFGGGTKVEIK", "Fold Difference (Control IC50)": 24, "Fold Difference (Curve IC50)": 20, "Mean IC50 (Control), RSV microneutralization": 0.0223, "Mean IC50 (Curve), RSV microneutralization": 0.0231},
      {"binder": "A8c7 monoclonal antibody (antibody, V domains shown) VH: QVTLRESGPALVKPTQTLTLTCTFSGFSLSTAGMSVGWIRQPPGKALEWLADIWWDDKKSYNPSLKDRLTISKDTSKNQVVLKVTNMDPADTATYYCARDMIFNWYFDVWGQGTTVTVSS VL: DIQMTQSPSTLSASVGDRVTITCSPSSRVGYMHWYQQKPGKAPKLLIYDTRYQSSGVPSRFSGSGSGTEFTLTISSLQPDDFATYYCFQGSGYPFTFGGGTKVEIK", "Fold Difference (Control IC50)": 14, "Fold Difference (Curve IC50)": 13, "Mean IC50 (Control), RSV microneutralization": 0.0383, "Mean IC50 (Curve), RSV microneutralization": 0.0337},
      {"binder": "A12a6 monoclonal antibody (antibody, V domains shown) VH: QVTLRESGPALVKPTQTLTLTCTFSGFSLSTAGMSVGWIRQPPGKALEWLADIWWDGKKDYNPSLKDRLTISKDTSKNQVVLKVTNMDPADTATYYCARDMIFNFYFDVWGQGTTVTVSS VL: DIQMTQSPSTLSASVGDRVTITCSASSRVGYMHWYQQKPGKAPKLLIYDTFKLSSGVPSRFSGSGSGTEFTLTISSLQPDDFATYYCFQGSGYPFTFGGGTKVEIK", "Fold Difference (Control IC50)": 15, "Fold Difference (Curve IC50)": 13, "Mean IC50 (Control), RSV microneutralization": 0.0354, "Mean IC50 (Curve), RSV microneutralization": 0.0357},
      {"binder": "P12f4 monoclonal antibody (antibody, V domains shown) VH: QVTLRESGPALVKPTQTLTLTCTFSGFSLSTPGMSVGWIRQPPGKALEWLADIWWDGKKHYNPSLKDRLTISKDTSKNQVVLKVTNMDPADTATYYCARDMIFNFYFDVWGQGTTVTVSS VL: DIQMTQSPSTLSASVGDRVTITCSLSSRVGYMHWYQQKPGKAPKLLIYDTRGLPSGVPSRFSGSGSGTEFTLTISSLQPDDFATYYCFQGSGYPFTFGGGTKVEIK", "Fold Difference (Control IC50)": 23, "Fold Difference (Curve IC50)": 19, "Mean IC50 (Control), RSV microneutralization": 0.0235, "Mean IC50 (Curve), RSV microneutralization": 0.0242},
      {"binder": "A1e9 monoclonal antibody (antibody, V domains shown) VH: QVTLRESGPALVKPTQTLTLTCTFSGFSLSTAGMSVGWIRQPPGKALEWLADIWWDGKKHYNPSLKDRLTISKDTSKNQVVLKVTNMDPADTATYYCARDMIFNWYFDVWGQGTTVTVSS VL: DIQMTQSPSTLSASVGDRVTITCSLSSRVGYMHWYQQKPGKAPKLLIYDTFKLSSGVPSRFSGSGSGTEFTLTISSLQPDDFATYYCFQGSGYPFTFGGGTKVEIK", "Fold Difference (Control IC50)": 8, "Fold Difference (Curve IC50)": 7, "Mean IC50 (Control), RSV microneutralization": 0.0645, "Mean IC50 (Curve), RSV microneutralization": 0.0625},
      {"binder": "A13c4 monoclonal antibody (antibody, V domains shown) VH: QVTLRESGPALVKPTQTLTLTCTFSGFSLSTAGMSVGWIRQPPGKALEWLADIWWDGKKSYNPSLKDRLTISKDTSKNQVVLKVTNMDPADTATYYCARDMIFNFYFDVWGQGTTVTVSS VL: DIQMTQSPSTLSASVGDRVTITCSLSSRVGYMHWYQQKPGKAPKLLIYDTMYQSSGVPSRFSGSGSGTEFTLTISSLQPDDFATYYCFQGSGYPFTFGGGTKVEIK", "Fold Difference (Control IC50)": 14, "Fold Difference (Curve IC50)": 12, "Mean IC50 (Control), RSV microneutralization": 0.0375, "Mean IC50 (Curve), RSV microneutralization": 0.0376},
      {"binder": "A4B4 monoclonal antibody (antibody, V domains shown) VH: QVTLRESGPALVKPTQTLTLTCTFSGFSLSTAGMSVGWIRQPPGKALEWLADIWWDDKKHYNPSLKDRLTISKDTSKNQVVLKVTNMDPADTATYYCARDMIFNFYFDVWGQGTTVTVSS VL: DIQMTQSPSTLSASVGDRVTITCSASSRVGYMHWYQQKPGKAPKLLIYDTFFLDSGVPSRFSGSGSGTEFTLTISSLQPDDFATYYCFQGSGYPFTFGGGTKVEIK", "Fold Difference (Control IC50)": 35, "Fold Difference (Curve IC50)": 27, "Mean IC50 (Control), RSV microneutralization": 0.0154, "Mean IC50 (Curve), RSV microneutralization": 0.0171},
      {"binder": "A1e9 Fab fragment (Fab, V domains shown) VH: QVTLRESGPALVKPTQTLTLTCTFSGFSLSTAGMSVGWIRQPPGKALEWLADIWWDGKKHYNPSLKDRLTISKDTSKNQVVLKVTNMDPADTATYYCARDMIFNWYFDVWGQGTTVTVSS VL: DIQMTQSPSTLSASVGDRVTITCSLSSRVGYMHWYQQKPGKAPKLLIYDTFKLSSGVPSRFSGSGSGTEFTLTISSLQPDDFATYYCFQGSGYPFTFGGGTKVEIK", "Fold Difference (Control IC50)": 4, "Fold Difference (Curve IC50)": 3, "Mean IC50 (Control), RSV microneutralization": 0.125, "Mean IC50 (Curve), RSV microneutralization": 0.157},
      {"binder": "A17d4(1) Fab fragment (Fab, V domains shown) VH: QVTLRESGPALVKPTQTLTLTCTFSGFSLSTAGMSVGWIRQPPGKALEWLADIWWDGKKSYNPSLKDRLTISKDTSKNQVVLKVTNMDPADTATYYCARDMIFNFYFDVWGQGTTVTVSS VL: DIQMTQSPSTLSASVGDRVTITCLPSSRVGYMHWYQQKPGKAPKLLIYDTMYQSSGVPSRFSGSGSGTEFTLTISSLQPDDFATYYCFQGSGYPFTFGGGTKVEIK", "Fold Difference (Control IC50)": 31, "Fold Difference (Curve IC50)": 25, "Mean IC50 (Control), RSV microneutralization": 0.0171, "Mean IC50 (Curve), RSV microneutralization": 0.0179},
      {"binder": "P11d4 Fab fragment (Fab, V domains shown) VH: QVTLRESGPALVKPTQTLTLTCTFSGFSLSTPGMSVGWIRQPPGKALEWLADIWWDGKKHYNPSLKDRLTISKDTSKNQVVLKVTNMDPADTATYYCARDMIFNWYFDVWGQGTTVTVSS VL: DIQMTQSPSTLSASVGDRVTITCSPSSRVGYMHWYQQKPGKAPKLLIYDTMRLASGVPSRFSGSGSGTEFTLTISSLQPDDFATYYCFQGSGYPFTFGGGTKVEIK", "Mean IC50 (Control), RSV microneutralization": "> 1", "Mean IC50 (Curve), RSV microneutralization": "> 1"},
      {"binder": "P12f2 Fab fragment (Fab, V domains shown) VH: QVTLRESGPALVKPTQTLTLTCTFSGFSLSTPGMSVGWIRQPPGKALEWLADIWWDDKKHYNPSLKDRLTISKDTSKNQVVLKVTNMDPADTATYYCARDMIFNFYFDVWGQGTTVTVSS VL: DIQMTQSPSTLSASVGDRVTITCSLSSRVGYMHWYQQKPGKAPKLLIYDTFYLSSGVPSRFSGSGSGTEFTLTISSLQPDDFATYYCFQGSGYPFTFGGGTKVEIK", "Fold Difference (Control IC50)": 16, "Fold Difference (Curve IC50)": 11, "Mean IC50 (Control), RSV microneutralization": 0.0326, "Mean IC50 (Curve), RSV microneutralization": 0.0407},
      {"binder": "A8c7 Fab fragment (Fab, V domains shown) VH: QVTLRESGPALVKPTQTLTLTCTFSGFSLSTAGMSVGWIRQPPGKALEWLADIWWDDKKSYNPSLKDRLTISKDTSKNQVVLKVTNMDPADTATYYCARDMIFNWYFDVWGQGTTVTVSS VL: DIQMTQSPSTLSASVGDRVTITCSPSSRVGYMHWYQQKPGKAPKLLIYDTRYQSSGVPSRFSGSGSGTEFTLTISSLQPDDFATYYCFQGSGYPFTFGGGTKVEIK", "Fold Difference (Control IC50)": 34, "Fold Difference (Curve IC50)": 3, "Mean IC50 (Control), RSV microneutralization": 0.157, "Mean IC50 (Curve), RSV microneutralization": 0.177},
      {"binder": "A12a6 Fab fragment (Fab, V domains shown) VH: QVTLRESGPALVKPTQTLTLTCTFSGFSLSTAGMSVGWIRQPPGKALEWLADIWWDGKKDYNPSLKDRLTISKDTSKNQVVLKVTNMDPADTATYYCARDMIFNFYFDVWGQGTTVTVSS VL: DIQMTQSPSTLSASVGDRVTITCSASSRVGYMHWYQQKPGKAPKLLIYDTFKLSSGVPSRFSGSGSGTEFTLTISSLQPDDFATYYCFQGSGYPFTFGGGTKVEIK", "Fold Difference (Control IC50)": 17, "Fold Difference (Curve IC50)": 16, "Mean IC50 (Control), RSV microneutralization": 0.031, "Mean IC50 (Curve), RSV microneutralization": 0.0287},
      {"binder": "P12f4 Fab fragment (Fab, V domains shown) VH: QVTLRESGPALVKPTQTLTLTCTFSGFSLSTPGMSVGWIRQPPGKALEWLADIWWDGKKHYNPSLKDRLTISKDTSKNQVVLKVTNMDPADTATYYCARDMIFNFYFDVWGQGTTVTVSS VL: DIQMTQSPSTLSASVGDRVTITCSLSSRVGYMHWYQQKPGKAPKLLIYDTRGLPSGVPSRFSGSGSGTEFTLTISSLQPDDFATYYCFQGSGYPFTFGGGTKVEIK", "Fold Difference (Control IC50)": 15, "Fold Difference (Curve IC50)": 10, "Mean IC50 (Control), RSV microneutralization": 0.0351, "Mean IC50 (Curve), RSV microneutralization": 0.0464},
      {"binder": "A13c4 Fab fragment (Fab, V domains shown) VH: QVTLRESGPALVKPTQTLTLTCTFSGFSLSTAGMSVGWIRQPPGKALEWLADIWWDGKKSYNPSLKDRLTISKDTSKNQVVLKVTNMDPADTATYYCARDMIFNFYFDVWGQGTTVTVSS VL: DIQMTQSPSTLSASVGDRVTITCSLSSRVGYMHWYQQKPGKAPKLLIYDTMYQSSGVPSRFSGSGSGTEFTLTISSLQPDDFATYYCFQGSGYPFTFGGGTKVEIK", "Fold Difference (Control IC50)": 21, "Fold Difference (Curve IC50)": 17, "Mean IC50 (Control), RSV microneutralization": 0.0258, "Mean IC50 (Curve), RSV microneutralization": 0.0264}
    ]}
  ]
}
